Results on one molecule are retold here after patent publication US20240101710A1.

For experiment [1], the target named is anti-BCMA scFv P5A2. Nature of the experiment: Biacore (SPR); recombinant H6. In general terms: In SPR one partner is held on a chip, and binding of the other changes the refractive index at the surface.
The target in experiment [2] is anti-BCMA scFv P5A2. Nature of the experiment: Biacore (SPR); H6 purified from hybridoma.
Experiment [3] addresses anti-BCMA CAR clone P5A2 expressed on the cell surface. Nature of the experiment: flow cytometry, anti-id staining on the PE-A axis against APC-A, Anti-BCMA CAR Clone P5A2 cells; Q2 prints 0.42, Q4 33.1, Q1 0.15. (In general: A flow cytometer gives signals particle by particle.)
Experiment [4] has the same target. Nature of the experiment: flow cytometry, SSC against CAR (anti-id) staining, cell line Anti-BCMA CAR clone P5A2, recombinant H6 at '0.063G' as printed; Q4 prints 72.4.
Experiment [5] has the same target. Nature of the experiment: flow cytometry, SSC against CAR (anti-id) staining, cell line Anti-BCMA CAR clone P5A2, hybridoma-derived H6 at '0.063G' as printed; Q4 prints 74.0.

anti-BCMA CAR clone P5A2 expressed on the cell surface, sequence (chain, as listed by the source limits assumed): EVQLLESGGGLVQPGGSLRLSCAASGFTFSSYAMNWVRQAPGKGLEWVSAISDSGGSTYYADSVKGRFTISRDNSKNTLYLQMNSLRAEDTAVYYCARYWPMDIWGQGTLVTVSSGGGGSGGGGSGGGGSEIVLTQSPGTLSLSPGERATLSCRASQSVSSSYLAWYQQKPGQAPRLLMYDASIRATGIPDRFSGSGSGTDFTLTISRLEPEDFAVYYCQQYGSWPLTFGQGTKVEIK

B1: anti-idiotypic antibody clone E2008.51H1.H6 (H6) (antibody, V domains shown)
VH: QVTLKESGPGILQPSQTLSLTCSFSGFSLNTSAMGVGWIRQPSGKGLEWLAHIWWNDDHYYNPALKSRVTISKDASNNQVFLKIASVVTADTATYYCARSIAPVVPTPFAYWGQGTLVTVSA
VL: DIQMTQSSSSFSVSLGDRVTITCKASEDIYNRLAWFQQKPGNAPRLLISGATRLETGVPSRFSGSGSGKDYTLSITSLQTEDVGTYYCQQYWSSSWTFGGGTKLEIK
As for B1, in experiment [1], the Kd is 3.71 nM, the off-rate constant (koff) was 0.00705 s⁻¹, the kon was determined as 1.9e+06 M⁻¹ s⁻¹ and the t1/2 stood at 1.64 min. In addition, in experiment [2], the Kd turned out to be 3.73 nM, the off-rate (koff) was determined as 0.00693 s⁻¹, the kon came to 1.86e+06 M⁻¹ s⁻¹ and the t1/2 amounted to 1.67 min. The same molecule gave a percent of cells in anti-id-positive quadrant Q3 in experiment [3] of 66.3%. In addition, the percent of cells in CAR-positive gate Q3 in experiment [4] is 27.6%. This molecule also came in with a percent of cells in CAR-positive gate Q3 in experiment [5] of 26%.

One may read the Kd as a measure of binding affinity in units of concentration. Usually koff stands for a measure of how fast the partners let go of each other. In general, kon refers to the rate constant with which the complex forms.
